Laboratory results reported in patent US20190300610A1 (published 2019).

Assays:
His-tagged human VISTA = target: T1, His-tagged human VISTA (human, UniProt Q9H7M9 33-194); experiment: BLI (Octet QK384), His-tagged VISTA captured on anti-Penta-HIS tips, antibody as analyte, global one site fit
T1 construct: also called human VISTA-His recombinant protein; VISTA/human His-tagged fusion protein (Sinobiological Inc); not shown: His tag

[1] = target: T2, His-tagged cynomolgus macaque VISTA (cynomolgus macaque, UniProt A0A7N9IB00 33-194); experiment: as above
T2 construct: also called cynomolgus monkey VISTA; not shown: His tag

[2] = target: T3, Histidine-tagged mFcγRIII (mouse, UniProt P08508 31-215); experiment: BLI (Octet QK384), His-tagged receptor on anti-Penta-HIS biosensor, antibody as analyte, pH 7.2
T3 construct: also called mouse FcγRIII; mFcγRIII (50326-M08H, Sino Biological); not shown: histidine tag
T3 sequence (looked up): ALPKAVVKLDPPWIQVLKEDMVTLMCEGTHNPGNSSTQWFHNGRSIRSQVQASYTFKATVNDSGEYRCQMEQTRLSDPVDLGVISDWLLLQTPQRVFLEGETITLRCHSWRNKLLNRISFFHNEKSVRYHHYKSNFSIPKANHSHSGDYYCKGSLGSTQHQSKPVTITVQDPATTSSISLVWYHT

Histidine-tagged mFcγRIV = target: T4, Histidine-tagged mFcγRIV (mouse, UniProt A0A0B4J1G0 21-203); experiment: as above
T4 construct: also called mouse FcγRIV; mFcγRIV (50036-M08H, Sino Biological)
T4 sequence: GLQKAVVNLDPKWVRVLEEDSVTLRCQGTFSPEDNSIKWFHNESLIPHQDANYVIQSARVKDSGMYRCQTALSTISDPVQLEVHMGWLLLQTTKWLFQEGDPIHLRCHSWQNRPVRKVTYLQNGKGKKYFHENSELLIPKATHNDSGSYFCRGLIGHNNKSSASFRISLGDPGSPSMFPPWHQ

[3] = target: T5, Histidine-tagged mFcγRIIb (mouse, UniProt P08101 30-207); experiment: as above
T5 construct: also called mouse FcγRIIb; mFcγRIIb (50030-M08H, Sino Biological); not shown: histidine tag
T5 sequence (looked up): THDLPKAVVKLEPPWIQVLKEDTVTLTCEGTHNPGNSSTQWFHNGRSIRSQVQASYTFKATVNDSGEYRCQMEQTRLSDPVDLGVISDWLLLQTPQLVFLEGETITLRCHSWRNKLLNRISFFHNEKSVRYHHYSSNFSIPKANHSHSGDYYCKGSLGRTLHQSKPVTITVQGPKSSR

[4] = target: T6, Human VISTA expressed on cells (human, UniProt Q9H7M9 33-311); experiment: flow cytometry, HEK293T cells transfected with human VISTA vs wildtype, 20 µg/ml antibody (FIGS. 1C, 2, 24)
T6 construct: also called HEK293 VISTA O/E; HEK293T cells transfected with vector encoding human VISTA
Description: The cells were washed thrice with FACS buffer (PBS with 5 mM EDTA and 0.5% BSA) and resuspended in FITC-conjugated anti-FC antibody (Invitrogen, USA) for 40 min at 2-8° C. Cells were washed again and resuspended in 200 μL of FACS flow buffer (PBS with 5 mM EDTA) for flow cytometric analysis using MACSQuant 10 (Miltenyi Biotec, Germany). After acquisition, all raw data were analyzed using Flowlogic software. Cells were gated using forward and side scatter profile and Median of Fluorescence Intensity (MFI) value was determined for native and overexpressing cell populations.

B1: anti-VISTA clone 4M2-C12 IgG1 (antibody)
heavy: not shown
light: DIVITQTPAILSTSPGEKVTMTCRASSSVGYIHWYQQKPGSSPKPWIYATSNLASGVPARFSGSGSGTSNSLTITRVEAEDAATYYCQQWSSYPPITFGGGTKLEVKRTVAAPSVFIFPPSDEQLKSGTASVVCLLNNFYPREAKVQWKVDNALQSGNSQESVTEQDSKDSTYSLSSTLTLSKADYEKHKVYACEVTHQGLSSPVTKSFNRGEC
notes: Human-mouse chimeric IgG1/kappa; also called V4; clone V4
His-tagged human VISTA
  Kd: < 1000 nM
[1]
  Kd: < 1000 nM

B2: 4M2-C12 mIgG2a (antibody)
heavy: EVKLVESGPGLVKPSQSLSLTCTVTGYSITSDYAWNWIRQFPGNKLEWMGYITYSGNISYNPSLRSRISITRDTSKNQFFLQLNSVTPEDTATYSCARSLYYPWYFDVWGAGTTVTVSSAKTTAPSVYPLAPVCGDTTGSSVTLGCLVKGYFPEPVTLTWNSGSLSSGVHTFPAVLQSDLYTLSSSVTVTSSTWPSQSITCNVAHPASSTKVDKKIEPRGPTIKPCPPCKCPAPNLLGGPSVFIFPPKIKDVLMISLSPIVTCVVVDVSEDDPDVQISWFVNNVEVHTAQTQTHREDYNSTLRVVSALPIQHQDWMSGKEFKCKVNNKDLPAPIERTISKPKGSVRAPQVYVLPPPEEEMTKKQVTLTCMVTDFMPEDIYVEWTNNGKTELNYKNTEPVLDSDGSYFMYSKLRVEKKNWVERNSYSCSVVHEGLHNHHTTKSFSRTPGK
light: DIVITQTPAILSTSPGEKVTMTCRASSSVGYIHWYQQKPGSSPKPWIYATSNLASGVPARFSGSGSGTSNSLTITRVEAEDAATYYCQQWSSYPPITFGGGTKLEVKRADAAPTVSIFPPSSEQLTSGGASVVCFLNNFYPKDINVKWKIDGSERQNGVLNSWTDQDSKDSTYSMSSTLTLTKDEYERHNSYTCEATHKTSTSPIVKSFNRNEC
notes: Mouse IgG2a format, produced in CHO cells; also called 4M2-C12 IgG2a
[2]
  binding result: binds
Histidine-tagged mFcγRIV
  binding result: binds
[3]
  binding result: binds

B3: anti-VISTA clone 9M2-C12 IgG1 (antibody, V domains shown)
VH: QVQLQQSGAELVKPGASVRLSCKASGYTFTSYWMHWVRQRPGLGLEWIGEIDPSDSYTNCNQRFKGKATLTVDKSSSTAYTQLSSLTSEDSAVYYCARWAYGPYAMDYWGQGTSVTVSS
VL: DIVMTQTPLSLPVSLGDQASISCRSSQSLVHSNGNTYLHWYLQKPGQSPKLLIYKVSNRFSGVPDRFSGSGSGTDFTLKISRVEAEDLGVYFCSQSTHVPWTFGGGTKLEIKR
[4]
  binding result: binds
